The labels stand for the following.
B1: ZNF8 (parent)
chain: SLGRHKRTHTGEKPYTCSVCGKSF

The record followed here is the supplement of paper PMC10567573.
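Also: lentivirally expressed fusions sorted by FACS into six bins by GFP to DsRed ratio, PSI derived from sequencing read proportions per bin multiplied by bin number.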

The variants in the data set derive from B1. Description: protein stability index of a GFP-peptide fusion (GPS, HEK-293T) (PSI 1-6); higher = more stable. The note with it: c terminus: a fixed tail appended.
SLGRHKRTHTGEKPYECSVCGKSF: the protein stability index amounted to 2.98.

Take SLGRHKRTHTGEKPYDCSVCGKSF: the protein stability index stood at 2.81.

For the variant SLGRHKRTHTGEKPYKCSVCGKSF, the protein stability index stood at 2.68.

For SLGRHKRTHTGEKPYRCSVCGKSF, the protein stability index came out at 2.89.

Regarding SLGRHKRTHTGEKPYSCSVCGKSF, the protein stability index stood at 2.51.

As to SLGRHKRTHTGEKPYQCSVCGKSF, the protein stability index was determined as 3.14.

Regarding SLGRHKRTHTGEKPYFCSVCGKSF, the protein stability index amounted to 3.04.

For the variant SLGRHKRTHTGEKPYPCSVCGKSF, the protein stability index was 2.19.

With SLGRHKRTHTGEKPYCCSVCGKSF, the protein stability index turned out to be 2.31.

On to SLGRHKRTHTGEKPYNCSVCGKSF, for which the protein stability index came to 2.97.

With SLGRHKTTHTGEKPYTCSVCGKSF, the protein stability index was determined as 2.32.

SLGRHKQTHTGEKPYTCSVCGKSF: the protein stability index is 2.98.

Take SLGRHKSTHTGEKPYTCSVCGKSF: the protein stability index came to 3.34.

For SLGRHKNTHTGEKPYTCSVCGKSF, the protein stability index is 3.38.

Consider SLGRHKWTHTGEKPYTCSVCGKSF, for which the protein stability index was 2.8.

With SLGRHKVTHTGEKPYTCSVCGKSF, the protein stability index is 3.37.

Take SLGRHKYTHTGEKPYTCSVCGKSF: the protein stability index came to 2.96.

For SLGRHKPTHTGEKPYTCSVCGKSF, the protein stability index came to 2.98.

Turning to SLGRHKMTHTGEKPYTCSVCGKSF, the protein stability index is 2.44.

For SLGRHKRTHTGEFPYTCSVCGKSF, the protein stability index amounted to 2.2.

For SLGRHKRTHTGEDPYTCSVCGKSF, the protein stability index was determined as 2.34.

As to SLGRHKRTHTGEWPYTCSVCGKSF, the protein stability index was determined as 3.06.

Turning to SLGRHKRTHTGENPYTCSVCGKSF, the protein stability index amounted to 2.48.

For the variant SLGRHKRTHTGEYPYTCSVCGKSF, the protein stability index was 2.31.

SLGRHKRTHTGESPYTCSVCGKSF: the protein stability index came to 2.94.

For the variant SLGRHKRTHTGETPYTCSVCGKSF, the protein stability index was 2.92.

In the case of SLGRHKRTHTGERPYTCSVCGKSF, the protein stability index came to 2.39.

As to SLGRHKRTHTGEMPYTCSVCGKSF, the protein stability index was determined as 2.4.

SLGRHKRTHTGELPYTCSVCGKSF: the protein stability index was 1.99.

In the case of SLGRHKRTHTGEQPYTCSVCGKSF, the protein stability index was determined as 2.71.

Consider SLGRHKRTHTGEIPYTCSVCGKSF, for which the protein stability index stood at 2.65.

As for SLGRHKRTHTGECPYTCSVCGKSF, the protein stability index worked out at 2.88.

Consider SLGRHKRTHTGEHPYTCSVCGKSF, for which the protein stability index was 2.96.

For SLGRHKRTHTGEGPYTCSVCGKSF, the protein stability index was 2.61.

For SLGRHKRTHTGEPPYTCSVCGKSF, the protein stability index was determined as 2.71.

Consider SLGRHKRTHTGEAPYTCSVCGKSF, for which the protein stability index came to 3.72.

In the case of SLGRHKRTHTGEEPYTCSVCGKSF, the protein stability index was found to be 2.39.

As for SLGRHKRTHTGLKPYTCSVCGKSF, the protein stability index came out at 2.37.

As for SLGRHKRTHTGNKPYTCSVCGKSF, the protein stability index was 3.1.

Take SLGRHKRTHTGDKPYTCSVCGKSF: the protein stability index was determined as 2.64.

Turning to SLGRHKRTHTGMKPYTCSVCGKSF, the protein stability index came out at 2.41.

Regarding SLGRHKRTHTGAKPYTCSVCGKSF, the protein stability index was 2.7.

On to SLGRHKRTHTGRKPYTCSVCGKSF, for which the protein stability index was determined as 3.19.

Turning to SLGRHKRTHTGGKPYTCSVCGKSF, the protein stability index worked out at 2.79.

Turning to SLGRHKRTHTGKKPYTCSVCGKSF, the protein stability index was 2.79.

Consider SLGRHKRTHTGPKPYTCSVCGKSF, for which the protein stability index stood at 3.28.

Take SLGRHKRTHTGWKPYTCSVCGKSF: the protein stability index amounted to 2.2.

As for SLGRHKRTHTGHKPYTCSVCGKSF, the protein stability index was 2.52.

Consider SLGRHKRTHTGQKPYTCSVCGKSF, for which the protein stability index worked out at 2.77.

For the variant SLGRHKRTHTGTKPYTCSVCGKSF, the protein stability index worked out at 2.24.

Consider SLGRHKRTHTGFKPYTCSVCGKSF, for which the protein stability index was determined as 1.74.

For SLGRHKRTHTGSKPYTCSVCGKSF, the protein stability index came out at 2.64.

For SLGRHKRTHTGCKPYTCSVCGKSF, the protein stability index is 2.24.

Take SLGRHKRTHTGVKPYTCSVCGKSF: the protein stability index is 2.11.

For SLGRHKRTHTGYKPYTCSVCGKSF, the protein stability index was 3.15.

For the variant SLGRHKRTHTGIKPYTCSVCGKSF, the protein stability index came to 2.53.

For SLGRHKRTHTGEKDYTCSVCGKSF, the protein stability index stood at 3.11.

Regarding SLGRHKRTHTGEKLYTCSVCGKSF, the protein stability index is 3.73.

With SLGRHKRTHTGEKNYTCSVCGKSF, the protein stability index amounted to 3.21.

With SLGRHKRTHTGEKAYTCSVCGKSF, the protein stability index amounted to 2.23.

Regarding SLGRHKRTHTGEKIYTCSVCGKSF, the protein stability index came out at 3.47.

With SLGRHKRTHTGEKHYTCSVCGKSF, the protein stability index stood at 2.89.

Regarding SLGRHKRTHTGEKWYTCSVCGKSF, the protein stability index came out at 3.82.

In the case of SLGRHKRTHTGEKMYTCSVCGKSF, the protein stability index worked out at 2.72.

SLGRHKRTHTGEKTYTCSVCGKSF: the protein stability index was 3.77.

Turning to SLGRHKRTHTGEKRYTCSVCGKSF, the protein stability index amounted to 2.63.

As for SLGRHKRTHTGEKQYTCSVCGKSF, the protein stability index was determined as 3.

On to SLGRHKRTHTGEKSYTCSVCGKSF, for which the protein stability index stood at 3.3.

In the case of SLGRHKRTHTGEKVYTCSVCGKSF, the protein stability index turned out to be 3.18.

Consider SLGRHKRTHTGEKYYTCSVCGKSF, for which the protein stability index stood at 3.

Consider SLGRHKRTHTGEKKYTCSVCGKSF, for which the protein stability index turned out to be 2.83.

Take SLGRHKRTHTGEKFYTCSVCGKSF: the protein stability index is 3.14.

For the variant SLGRHKRTHTGEKEYTCSVCGKSF, the protein stability index was 2.8.

Consider SLGRHKRTHTGEKGYTCSVCGKSF, for which the protein stability index stood at 2.44.

In the case of SLGRHKRTHTGEKCYTCSVCGKSF, the protein stability index was 2.73.

Take SLGRHKRTHTGEKPATCSVCGKSF: the protein stability index was 2.58.

Take SLGRHKRTHTGEKPITCSVCGKSF: the protein stability index was found to be 2.59.

On to SLGRHKRTHTGEKPWTCSVCGKSF, for which the protein stability index was found to be 2.63.

Consider SLGRHKRTHTGEKPETCSVCGKSF, for which the protein stability index is 2.89.

Take SLGRHKRTHTGEKPRTCSVCGKSF: the protein stability index was found to be 2.61.

Regarding SLGRHKRTHTGEKPLTCSVCGKSF, the protein stability index amounted to 2.44.

For the variant SLGRHKRTHTGEKPNTCSVCGKSF, the protein stability index was determined as 2.33.

In the case of SLGRHKRTHTGEKPHTCSVCGKSF, the protein stability index is 2.34.

For the variant SLGRHKRTHTGEKPCTCSVCGKSF, the protein stability index was found to be 3.79.

Consider SLGRHKRTHTGEKPQTCSVCGKSF, for which the protein stability index amounted to 2.33.

As for SLGRHKRTHTGEKPMTCSVCGKSF, the protein stability index came out at 2.52.

Regarding SLGRHKRTHTGEKPFTCSVCGKSF, the protein stability index was 2.36.

For SLGRHKRTHTGEKPVTCSVCGKSF, the protein stability index turned out to be 2.44.

Regarding SLGRHKRTHTGEKPSTCSVCGKSF, the protein stability index was 2.9.

Take SLGRHKRTHTGEKPKTCSVCGKSF: the protein stability index was found to be 2.72.

Regarding SLGRHKRTHTGEKPDTCSVCGKSF, the protein stability index worked out at 2.46.

As to SLGRHKRTHTGEKPTTCSVCGKSF, the protein stability index was found to be 2.3.

Consider SLGRHKRTHTGEKPPTCSVCGKSF, for which the protein stability index is 2.29.

For SLGRHKRTHTGEKPGTCSVCGKSF, the protein stability index worked out at 2.45.
